Experimental data published in US20090298765A1 (Takeda / Millennium, published 2009).
Read-outs that look alike come from different tables or passages of the source. Non-standard residues stand in square brackets, D forms with d. No end group written: not given here. *: point of attachment. 2‑(indol-3-yl)ethylcarbamoyl = O=C(NCCc1c[nH]c2ccccc12)*; Propanoyl(3-indol-3-yl) = O=C(CCc1c[nH]c2ccccc12)*; Diphenylacetyl = O=C(C(c1ccccc1)c1ccccc1)*; indole‑3‑carbonyl = O=C(c1c[nH]c2ccccc12)*; indole‑3‑acetyl = O=C(Cc1c[nH]c2ccccc12)*; Arg(Me) = CNC(=N)NCCC[C@H](N)C(=O)O; Arg(n-Pr) = n-propylated arginine; Hydrocinnamoyl = O=C(CCc1ccccc1)*; Orn = NCCC[C@H](N)C(=O)O; azaGly = NNC(=O)O

B1: des(1-3)-Indole-3-acetyl-[AzaGly7,Arg(Me)9]MS10 (peptide)
peptide: {indole‑3‑acetyl}-NSF[azaGly]L[Arg(Me)]F-NH2
SMILES: CNC(=N)NCCC[C@H](NC(=O)[C@H](CC(C)C)NC(=O)NNC(=O)[C@H](Cc1ccccc1)NC(=O)[C@H](CO)NC(=O)[C@H](CC(N)=O)NC(=O)Cc1c[nH]c2ccccc12)C(=O)N[C@@H](Cc1ccccc1)C(N)=O
notes: also called Compound No. 266
B2: [Orn9]MS10 (peptide)
peptide: YNWNSFGL[Orn]F-NH2
modifications: N-terminus assumed
SMILES: CC(C)C[C@H](NC(=O)CNC(=O)[C@H](Cc1ccccc1)NC(=O)[C@H](CO)NC(=O)[C@H](CC(N)=O)NC(=O)[C@H](Cc1c[nH]c2ccccc12)NC(=O)[C@H](CC(N)=O)NC(=O)[C@@H](N)Cc1ccc(O)cc1)C(=O)N[C@@H](CCCN)C(=O)N[C@@H](Cc1ccccc1)C(N)=O
notes: also called Compound No. 314
B3: des(1)-[D-Asn2,Arg(Me)9]MS10 (peptide)
peptide: [dN]WNSFGL[Arg(Me)]F-NH2
modifications: N-terminus assumed
SMILES: CNC(=N)NCCC[C@H](NC(=O)[C@H](CC(C)C)NC(=O)CNC(=O)[C@H](Cc1ccccc1)NC(=O)[C@H](CO)NC(=O)[C@H](CC(N)=O)NC(=O)[C@H](Cc1c[nH]c2ccccc12)NC(=O)[C@H](N)CC(N)=O)C(=O)N[C@@H](Cc1ccccc1)C(N)=O
notes: also called Compound No. 216
B4: des(1)-[D-Asn2,D-Trp3,Arg(Me)9]MS10 (peptide)
peptide: [dN][dW]NSFGL[Arg(Me)]F-NH2
modifications: N-terminus assumed
SMILES: CNC(=N)NCCC[C@H](NC(=O)[C@H](CC(C)C)NC(=O)CNC(=O)[C@H](Cc1ccccc1)NC(=O)[C@H](CO)NC(=O)[C@H](CC(N)=O)NC(=O)[C@@H](Cc1c[nH]c2ccccc12)NC(=O)[C@H](N)CC(N)=O)C(=O)N[C@@H](Cc1ccccc1)C(N)=O
notes: also called Compound No. 225
B5: des(1)-[D-Tyr2,Ile3,Arg(Me)9]MS10 (peptide)
peptide: [dY]INSFGL[Arg(Me)]F-NH2
modifications: N-terminus assumed
SMILES: CC[C@H](C)[C@H](NC(=O)[C@H](N)Cc1ccc(O)cc1)C(=O)N[C@@H](CC(N)=O)C(=O)N[C@@H](CO)C(=O)N[C@@H](Cc1ccccc1)C(=O)NCC(=O)N[C@@H](CC(C)C)C(=O)N[C@@H](CCCNC(=N)NC)C(=O)N[C@@H](Cc1ccccc1)C(N)=O
notes: also called Compound No. 228
B6: des(1)-[D-Tyr2,Phe3,AzaGly7,Arg(Me)9]MS10 (peptide)
peptide: [dY]FNSF[azaGly]L[Arg(Me)]F-NH2
modifications: N-terminus assumed
SMILES: CNC(=N)NCCC[C@H](NC(=O)[C@H](CC(C)C)NC(=O)NNC(=O)[C@H](Cc1ccccc1)NC(=O)[C@H](CO)NC(=O)[C@H](CC(N)=O)NC(=O)[C@H](Cc1ccccc1)NC(=O)[C@H](N)Cc1ccc(O)cc1)C(=O)N[C@@H](Cc1ccccc1)C(N)=O
notes: also called Compound No. 254
B7: [D-Tyr1,Ser4,Arg(Me)9]MS10 (peptide)
peptide: [dY]NWSSFGL[Arg(Me)]F-NH2
modifications: N-terminus assumed
SMILES: CNC(=N)NCCC[C@H](NC(=O)[C@H](CC(C)C)NC(=O)CNC(=O)[C@H](Cc1ccccc1)NC(=O)[C@H](CO)NC(=O)[C@H](CO)NC(=O)[C@H](Cc1c[nH]c2ccccc12)NC(=O)[C@H](CC(N)=O)NC(=O)[C@H](N)Cc1ccc(O)cc1)C(=O)N[C@@H](Cc1ccccc1)C(N)=O
B8: des(1-3)-2-(Indol-3-yl)ethylcarbamoyl-[AzaGly7,Arg(Me)9]MS10 (peptide)
peptide: {2‑(indol-3-yl)ethylcarbamoyl}-NSF[azaGly]L[Arg(Me)]F-NH2
SMILES: CNC(=N)NCCC[C@H](NC(=O)[C@H](CC(C)C)NC(=O)NNC(=O)[C@H](Cc1ccccc1)NC(=O)[C@H](CO)NC(=O)[C@H](CC(N)=O)NC(=O)NCCc1c[nH]c2ccccc12)C(=O)N[C@@H](Cc1ccccc1)C(N)=O
notes: also called Compound No. 279
B9: des(1-3)-Diphenylacetyl-[AzaGly7,Arg(Me)9]MS10 (peptide)
peptide: Diphenylacetyl-NSF[azaGly]L[Arg(Me)]F-NH2
SMILES: CNC(=N)NCCC[C@H](NC(=O)[C@H](CC(C)C)NC(=O)NNC(=O)[C@H](Cc1ccccc1)NC(=O)[C@H](CO)NC(=O)[C@H](CC(N)=O)NC(=O)C(c1ccccc1)c1ccccc1)C(=O)N[C@@H](Cc1ccccc1)C(N)=O
notes: also called Compound No. 268
B10: [D-Tyr1,Gln4,Arg(Me)9]MS10 (peptide)
peptide: [dY]NWQSFGL[Arg(Me)]F-NH2
modifications: N-terminus assumed
SMILES: CNC(=N)NCCC[C@H](NC(=O)[C@H](CC(C)C)NC(=O)CNC(=O)[C@H](Cc1ccccc1)NC(=O)[C@H](CO)NC(=O)[C@H](CCC(N)=O)NC(=O)[C@H](Cc1c[nH]c2ccccc12)NC(=O)[C@H](CC(N)=O)NC(=O)[C@H](N)Cc1ccc(O)cc1)C(=O)N[C@@H](Cc1ccccc1)C(N)=O

Key:
[1] = biological target: T1, human OT7T175 (metastin receptor) (human, UniProt Q969F8 1-398); test: cell-based or functional assay
T1 sequence (Q969F8 whole entry L364H): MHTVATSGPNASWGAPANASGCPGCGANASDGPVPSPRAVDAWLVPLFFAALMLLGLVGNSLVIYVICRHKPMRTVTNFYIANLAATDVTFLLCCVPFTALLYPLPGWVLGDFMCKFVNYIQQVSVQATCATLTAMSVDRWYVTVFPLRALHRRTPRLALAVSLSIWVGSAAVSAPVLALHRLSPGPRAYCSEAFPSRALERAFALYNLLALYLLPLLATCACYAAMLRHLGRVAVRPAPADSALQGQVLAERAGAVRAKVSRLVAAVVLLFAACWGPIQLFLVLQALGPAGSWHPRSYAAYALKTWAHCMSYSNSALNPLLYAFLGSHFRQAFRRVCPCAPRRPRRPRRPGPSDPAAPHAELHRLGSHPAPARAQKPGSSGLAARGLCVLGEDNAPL

[2] = biological target: T1, human OT7T175 (metastin receptor); test: competition with Cy-5 metastin (40-54) on hOT7T175-CHO cells, FMAT
[3] = biological target: T1, human OT7T175 (metastin receptor); test: cell-based or functional assay; remark: listed apart in the source
[4] = biological target: T1, human OT7T175 (metastin receptor); test: cell-based or functional assay; remark: listed apart in the source

| Binder | Ca ion level-increasing activity (FLIPR, 40 s) [1] [EC50/MS10 EC50] | IC50 [2] [nM] | Ca ion level-increasing activity (FLIPR) [3] | Ca ion level-increasing activity (FLIPR) [4] |
| --- | --- | --- | --- | --- |
| {indole‑3‑carbonyl}-NSF[azaGly]L[Arg(Me)]F-NH2 (also called Compound No. 265) [des(1-3)-Indole-3-carbonyl-[AzaGly7,Arg(Me)9]MS10] | 4.4 | 95 | 3 x Metastin (1-54) |  |
| B1 | 5.4 | 230 | 2 x Metastin (1-54) |  |
| B2 | 4.4 | 470 | 1 x Metastin (1-54) |  |
| [dY]NWNSFGL[Arg(Me)]F-NH2 (also: bond 6-7 CONH replaced by CSNH (thioamide), also called Compound No. 296) [[6Ψ7,CSNH,D-Tyr1,Arg(Me)9]MS10] | 5.2 | 14 | 3 x Metastin (1-54) |  |
| {Propanoyl(3-indol-3-yl)}-NSF[azaGly]L[Arg(Me)]F-NH2 (also: also named 1-(3-indolyl)propionyl cap, also called Compound No. 260) [des(1-3)-3-(3-Indolyl)propionyl-[AzaGly7,Arg(Me)9]MS10] | 4.3 | 320 | 5 x Metastin (1-54) |  |
| [dY]NWNSFGL[Arg(n-Pr)]F-NH2 [[D-Tyr1,Arg(n-Pr)9]MS10] |  |  |  | 0.5 x Metastin (1-54) |
| Hydrocinnamoyl-NSF[azaGly]L[Arg(Me)]F-NH2 (also called Compound No. 269) [des(1-3)-3-Phenylpropionyl-[AzaGly7,Arg(Me)9]MS10] | 3.4 | 470 | 3 x Metastin (1-54) |  |
| [dY][dN]WNSF[azaGly]L[Arg(Me)]F-NH2 (also called Compound No. 237) [[D-Tyr1,D-Asn2,AzaGly7,Arg(Me)9]MS10] |  | 27 |  | 3 x Metastin (1-54) |
| B3 |  | 700 |  | 1 x Metastin (1-54) |
| B4 |  | 410 |  | 1 x Metastin (1-54) |
| B5 |  | 40 |  | 5 x Metastin (1-54) |
| B6 |  | 11 |  | 1 x Metastin (1-54) |
| B7 |  |  |  | 0.5 x Metastin (1-54) |
| B8 | 6.4 | 29 | 5 x Metastin (1-54) |  |
| B9 | 4.5 | 550 | 1 x Metastin (1-54) |  |
| YNWNSFGLXF (Nar9; C-terminal amide, also called Compound No. 310) [[Nar9]MS10] | 2 | 310 | 3 x Metastin (1-54) |  |
| YNWNSFGLXF (Nar(Me)9; C-terminal amide, also called Compound No. 311) [[Nar(Me)9]MS10] | 6.2 | 470 | 1 x Metastin (1-54) |  |
| B10 |  |  |  | 0.5 x Metastin (1-54) |
